Experimental data: PMC2898303 (The Journal of Biological Chemistry, 2010)

T1: His6-S-Tag-Gfd1 wild type (S. cerevisiae, UniProt Q04839 1-188)
T1 sequence (looked up): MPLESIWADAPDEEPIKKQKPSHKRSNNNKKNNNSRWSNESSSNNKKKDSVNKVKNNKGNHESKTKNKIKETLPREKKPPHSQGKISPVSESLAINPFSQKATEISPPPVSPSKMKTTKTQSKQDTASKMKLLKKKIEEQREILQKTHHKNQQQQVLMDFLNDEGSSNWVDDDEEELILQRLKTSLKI

T2: Nab2-N (residues 1–105 of Nab2), untagged (S. cerevisiae, UniProt P32505 1-105)
T2 sequence (looked up): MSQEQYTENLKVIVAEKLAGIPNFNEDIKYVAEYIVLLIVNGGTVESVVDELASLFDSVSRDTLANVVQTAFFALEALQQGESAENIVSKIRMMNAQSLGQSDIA


Columns and labels:
[1] = biological target: T1, His6-S-Tag-Gfd1 wild type; experiment: pull-down
[2] = biological target: T2, Nab2-N (residues 1–105 of Nab2), …; experiment: crystal structure

Row | Binder | binding result [1] | binding result [2]
1 | GST-Nab2-N-WT (residues 1–97) (domain or fragment, S. cerevisiae, UniProt P32505 1-97, looked up) MSQEQYTENLKVIVAEKLAGIPNFNEDIKYVAEYIVLLIVNGGTVESVVDELASLFDSVSRDTLANVVQTAFFALEALQQGESAENIVSKIRMMNAQ | binds | 
2 | SKQDTASKMKLLKKKIEEQREILQKTHHKN (peptide, UniProt Q04839 122-151, looked up) [Gfd1 122–151 (fragment of Gfd1 released from GST-TEV-Gfd1 122–151 by TEV protease)] |  | binds

The remaining lines, values ahead:

Row | binding result [1] | binding result [2] | Binder
3 | binds |  | GST-Nab2-N-F56D (residues 1–97) (domain or fragment, S. cerevisiae, UniProt P32505 1-97, looked up) MSQEQYTENLKVIVAEKLAGIPNFNEDIKYVAEYIVLLIVNGGTVESVVDELASLDDSVSRDTLANVVQTAFFALEALQQGESAENIVSKIRMMNAQ
4 | binds |  | GST-Nab2-N-L55W (residues 1–97) (domain or fragment, S. cerevisiae, UniProt P32505 1-97, looked up) MSQEQYTENLKVIVAEKLAGIPNFNEDIKYVAEYIVLLIVNGGTVESVVDELASWFDSVSRDTLANVVQTAFFALEALQQGESAENIVSKIRMMNAQ
